From paper PMC4784909, “The Structural Basis of Coenzyme A Recycling in a Bacterial Organelle” (PLoS Biology, 2016) come the findings set out here.

Where two headings read alike, the source gives them in different places.

For series [1], the target named is T1, rPduLΔEP (Rhodopseudomonas palustris, UniProt Q21A54). Details: gene pduL. Particulars: crystals soaked 2 d in sodium phosphate pH 7.0; bridges both Zn in active site, CoA dissociated.
The target of series [2] is T1, rPduLΔEP. Description: X-ray crystal structure, […] Å. The class given is binding. Details: gene pduL; C-terminal 6xHis, codon optimized, E. coli BL21(DE3); dimer; contains 2 Zn. Particulars: CoA co-purified from E. coli; sulfur coordinates Zn1 of di-zinc active site.
Series [3] concerns the target pPduL, full length (PduL from the pvm locus of Planctomyces limnophilus) (Planctomyces limnophilus). Briefly: SEC; post-nickel affinity protein on HiLoad 26/60 Superdex 200 preparative column, pooled fractions (1-20 mg/mL) on Superdex 200 10/300 GL analytical column; 20 mM Tris pH 7.4, 50 mM NaCl. On the technique in general: In gel filtration, larger molecules generally elute earlier.

For series [4] the target is unchanged. The description is as above. The source holds these as a separate data set.
Series [5] concerns the molecule itself. Described as above.
Series [6] concerns the molecule itself. Description: SEC-MALS; Superdex S200 10/300 GL, 1 mg/ml protein injected, 0.5 ml/min, 20 mM Tris, 50 mM NaCl, pH 7.4.

In the case of `O=P(O)(O)O` [phosphate], on rPduLΔEP [1], the “X-ray crystal structure, phosphate soak, 2.10 Å” value is “the CoA dissociates, and density for a phosphate molecule is visible at the active site”.
With `CC(C)(COP(=O)(O)OP(=O)(O)OC[C@H]1O[C@@H](n2cnc3c(N)ncnc32)[C@H](O)[C@@H]1OP(=O)(O)O)[C@@H](O)C(=O)NCCC(=O)NCCS` [Coenzyme A], the “X-ray crystal structure, 1.54 Å” value on rPduLΔEP [2] was “tetrahedral coordination state with His48, His50, Glu109, and the CoA sulfur”.
For orientation: stoichiometry N means a count of units in the complex or per binding partner. Take “pPduL, full length (PduL from the pvm locus of Planctomyces limnophilus) (enzyme)”: the results for the stoichiometry N in series [3] and in series [4] were 2 and 6, respectively.

B1: rPduLΔEP (PduL from the grm3 locus of Rhodopseudomonas palustris BisB18, N-terminal putative encapsulation peptide removed) (enzyme, UniProt Q21A54 34-226, looked up)
chain: GVDPFQVAVGVSNRHIHLSRTDMDTLFGPGAELQRKKAMKQPGQFAAEETVTLKGPKGSLSKVRVLGPLRRETQVEVSVADGFALGITPPLRQSGQLDDTPGLTIIGPQGSVTKDHGVIVAQRHIHMHPSTAAKLGLRNGDEVDVEAGGERGGVMHRVLIRVAEASADEMHIDVEEANALCLKNDDVVRICKK
notes: PduL phosphotransacylase, grm3 locus, Rhodopseudomonas palustris BisB18; N-terminal putative EP (33 amino acids) removed; the crystallized construct begins with M-G-V; The construct begins with M-G-V; Gene codon optimized and synthesized with the 6xHis tag; no tag cleavage step is described; Crystals hold CoA (or phosphate) and two zinc ions per chain; also called truncated rPduL; Pdul-His; …
Regarding B1, the “stoichiometry N” value in series [5] came to 2.

B2: rPduL, full length (PduL from the grm3 locus of Rhodopseudomonas palustris BisB18) (enzyme, UniProt Q21A54 1-226, looked up)
chain: MDMQQETIERIIRQVLGQVGPAGGSIATLSGDAGVDPFQVAVGVSNRHIHLSRTDMDTLFGPGAELQRKKAMKQPGQFAAEETVTLKGPKGSLSKVRVLGPLRRETQVEVSVADGFALGITPPLRQSGQLDDTPGLTIIGPQGSVTKDHGVIVAQRHIHMHPSTAAKLGLRNGDEVDVEAGGERGGVMHRVLIRVAEASADEMHIDVEEANALCLKNDDVVRICKK
notes: PduL phosphotransacylase, grm3 locus, Rhodopseudomonas palustris BisB18, with its N-terminal encapsulation peptide; Two oligomeric states by SEC (about a dimer and a higher oligomer); six subunits by SEC-MALS; also called rPduL hexamer; wildtype construct; source: E. coli BL21(DE3), purified (HisTrap, Superdex 200)
In the case of B2, the “stoichiometry N” value is 6 in series [6] and about 2 in series [5].
